Laboratory results: the supplement of paper PMC7877785
± gives the uncertainty stated by the source.

Experiment: self-splicing fitness, log relative to wild type (ln ratio); higher = more splicing; Tetrahymena group I intron in knt gene, E. coli kanamycin selection, DiMSum; sequences stand for … in CUCUCU…GGAGGGAAAAGUUAUCAGGCAUGCACCUGGUAGCUAGUCUUUAAACCAAUAGAUUGCAUCGGUUUAAAAGGCAAGACCGUCAAAUUGCGGGAAAGGGGUCAACAGCCGUUCAGUACCAAGUCUCAGGGGAAACUUUGAGAUGGCCUUGCAAAGGGUAUGGUAAUAAGCUGACGGACAUGGUCCUAACCACGCAGCCAAGUCCUAAGUCAACAGAUCUUCUGUUGAUAUGGAUGCAGUUCACAGACUAAAUGUCGGUCGGGGAAGAUGUAUUCUUCUCAUAAGAUAUAGUCGGACCUCUCCUUAAUGGGAGCUAGCGGAUGAAGUGAUGCAACACUGGAGCCGCUGGGAACUAAUUUGUAUGCGAAAGUAUAUUGAUUAGUUUUGGAGUACUCGUGGUCG
Outline: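 Library with all eight P1ex-region intron nucleotides randomised, intron inside the knt kanamycin-resistance gene on pET-22b(+), in E. coli BL21(DE3). Cells grew overnight at 37°C or 30°C on LB agar with or without 25 μg/mL kanamycin (plus 100 μg/mL carbenicillin, 50 μM IPTG, 0.2% rhamnose), in six replicate transformations. Pooled colonies were amplicon-sequenced on Illumina HiSeq 2500. DiMSum fitness is the error-weighted combination of wild-type-normalised replicate fold changes, kanamycin versus none.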

CGAGAGCAAUAUUACGGGAA
self-splicing fitness (ln) (30 °C): -1.44 ± 0.33 | self-splicing fitness (ln) (37 °C): -1.71 ± 0.44

CGAGAGCAAUAUUACGGUGG
self-splicing fitness (ln) (30 °C): -1.72 ± 0.34 | self-splicing fitness (ln) (37 °C): -2.24 ± 0.34

CGAGAGCAAUAUUACGGUUU
self-splicing fitness (ln) (30 °C): -3.15 ± 0.15 | self-splicing fitness (ln) (37 °C): -2.58 ± 0.21

CGAGAGCAAUAUUACGUACG
self-splicing fitness (ln) (30 °C): -3.14 ± 0.17 | self-splicing fitness (ln) (37 °C): -2.28 ± 0.29

CGAGAGCAAUAUUACGUCUG
self-splicing fitness (ln) (30 °C): -1.33 ± 0.24 | self-splicing fitness (ln) (37 °C): -1.31 ± 0.17

CGAGAGCAAUAUUACGUGAU
self-splicing fitness (ln) (30 °C): -4.24 ± 0.24 | self-splicing fitness (ln) (37 °C): -2.58 ± 0.2

CGAGAGCAAUAUUACGUGCU
self-splicing fitness (ln) (30 °C): -4.22 ± 0.46

CGAUAGCAAUAUUACGAAUG
self-splicing fitness (ln) (30 °C): -0.898 ± 0.082 | self-splicing fitness (ln) (37 °C): 0.443 ± 0.11

CGAUAGCAAUAUUACGACAG
self-splicing fitness (ln) (30 °C): 0.215 ± 0.1 | self-splicing fitness (ln) (37 °C): 0.719 ± 0.12

CGAUAGCAAUAUUACGACCC
self-splicing fitness (ln) (30 °C): -2.33 ± 0.44

CGAUAGCAAUAUUACGAGCU
self-splicing fitness (ln) (30 °C): -3.42 ± 0.4 | self-splicing fitness (ln) (37 °C): -3.09 ± 0.35

CGAUAGCAAUAUUACGAGGG
self-splicing fitness (ln) (30 °C): -2.4 ± 0.15 | self-splicing fitness (ln) (37 °C): -2.14 ± 0.26

CGAUAGCAAUAUUACGAGUU
self-splicing fitness (ln) (30 °C): -3.61 ± 0.24 | self-splicing fitness (ln) (37 °C): -2.28 ± 0.23

CGAUAGCAAUAUUACGAUUG
self-splicing fitness (ln) (30 °C): -2.27 ± 0.12 | self-splicing fitness (ln) (37 °C): -1.2 ± 0.12

CGAUAGCAAUAUUACGCAAA
self-splicing fitness (ln) (30 °C): -2.98 ± 0.29 | self-splicing fitness (ln) (37 °C): -1.92 ± 0.15

CGAUAGCAAUAUUACGCAGU
self-splicing fitness (ln) (30 °C): -2.96 ± 0.19 | self-splicing fitness (ln) (37 °C): -2.48 ± 0.19

CGAUAGCAAUAUUACGCCUC
self-splicing fitness (ln) (30 °C): -2.84 ± 0.24 | self-splicing fitness (ln) (37 °C): -1.74 ± 0.26

CGAUAGCAAUAUUACGGAAG
self-splicing fitness (ln) (30 °C): -1.53 ± 0.083 | self-splicing fitness (ln) (37 °C): -0.509 ± 0.11

CGAUAGCAAUAUUACGGAGC
self-splicing fitness (ln) (30 °C): -3.91 ± 0.4 | self-splicing fitness (ln) (37 °C): -1.63 ± 0.3

CGAUAGCAAUAUUACGGCAU
self-splicing fitness (ln) (30 °C): -2.85 ± 0.21 | self-splicing fitness (ln) (37 °C): -2.54 ± 0.26

CGAUAGCAAUAUUACGGGGU
self-splicing fitness (ln) (30 °C): -3.87 ± 0.19 | self-splicing fitness (ln) (37 °C): -3.11 ± 0.32

CGAUAGCAAUAUUACGGUAG
self-splicing fitness (ln) (30 °C): -1.41 ± 0.11 | self-splicing fitness (ln) (37 °C): -0.461 ± 0.11

CGAUAGCAAUAUUACGUAUG
self-splicing fitness (ln) (30 °C): -1.22 ± 0.071 | self-splicing fitness (ln) (37 °C): -0.164 ± 0.096

CGCAAGCAAUAUUACGAAAC
self-splicing fitness (ln) (30 °C): -3.46 ± 0.37 | self-splicing fitness (ln) (37 °C): -0.979 ± 0.12

CGCAAGCAAUAUUACGAACU
self-splicing fitness (ln) (30 °C): -0.966 ± 0.065 | self-splicing fitness (ln) (37 °C): -0.369 ± 0.076

CGCAAGCAAUAUUACGAAGC
self-splicing fitness (ln) (30 °C): -2.55 ± 0.13 | self-splicing fitness (ln) (37 °C): -3.1 ± 0.19

CGCAAGCAAUAUUACGACUC
self-splicing fitness (ln) (30 °C): -1.3 ± 0.12 | self-splicing fitness (ln) (37 °C): -0.869 ± 0.19

CGCAAGCAAUAUUACGCAAU
self-splicing fitness (ln) (30 °C): -2.94 ± 0.21 | self-splicing fitness (ln) (37 °C): -2.14 ± 0.26

CGCAAGCAAUAUUACGCAGC
self-splicing fitness (ln) (37 °C): -2.35 ± 0.27

CGCAAGCAAUAUUACGCCCA
self-splicing fitness (ln) (30 °C): -0.622 ± 0.17 | self-splicing fitness (ln) (37 °C): -0.291 ± 0.16

CGCAAGCAAUAUUACGCGUG
self-splicing fitness (ln) (30 °C): -3.08 ± 0.12 | self-splicing fitness (ln) (37 °C): -1.99 ± 0.13

CGCAAGCAAUAUUACGCUCU
self-splicing fitness (ln) (30 °C): -1.26 ± 0.093 | self-splicing fitness (ln) (37 °C): -0.475 ± 0.094

CGCAAGCAAUAUUACGGAUA
self-splicing fitness (ln) (30 °C): -3.52 ± 0.22 | self-splicing fitness (ln) (37 °C): -2.23 ± 0.16

CGCAAGCAAUAUUACGGCCG
self-splicing fitness (ln) (30 °C): -1.1 ± 0.14 | self-splicing fitness (ln) (37 °C): -0.644 ± 0.26

CGCAAGCAAUAUUACGGUGG
self-splicing fitness (ln) (30 °C): -0.599 ± 0.064 | self-splicing fitness (ln) (37 °C): -0.2 ± 0.079

CGCAAGCAAUAUUACGUAAA
self-splicing fitness (ln) (30 °C): -3.18 ± 0.14 | self-splicing fitness (ln) (37 °C): -2.12 ± 0.18

CGCAAGCAAUAUUACGUCCU
self-splicing fitness (ln) (30 °C): -1.2 ± 0.11 | self-splicing fitness (ln) (37 °C): -0.366 ± 0.12

CGCAAGCAAUAUUACGUCGC
self-splicing fitness (ln) (30 °C): -2.24 ± 0.19 | self-splicing fitness (ln) (37 °C): -3.19 ± 0.29
